Reference: PMC8934648, “The MukB-topoisomerase IV interaction mutually suppresses their catalytic activities” (Nucleic Acids Research, 2021)

T1: MukB (E. coli, UniProt P22523 1-1486)
T1 construct: MukB, SMC-like condensin of Escherichia coli; also called condensin MukB; wild-type MukB
T1 sequence (looked up): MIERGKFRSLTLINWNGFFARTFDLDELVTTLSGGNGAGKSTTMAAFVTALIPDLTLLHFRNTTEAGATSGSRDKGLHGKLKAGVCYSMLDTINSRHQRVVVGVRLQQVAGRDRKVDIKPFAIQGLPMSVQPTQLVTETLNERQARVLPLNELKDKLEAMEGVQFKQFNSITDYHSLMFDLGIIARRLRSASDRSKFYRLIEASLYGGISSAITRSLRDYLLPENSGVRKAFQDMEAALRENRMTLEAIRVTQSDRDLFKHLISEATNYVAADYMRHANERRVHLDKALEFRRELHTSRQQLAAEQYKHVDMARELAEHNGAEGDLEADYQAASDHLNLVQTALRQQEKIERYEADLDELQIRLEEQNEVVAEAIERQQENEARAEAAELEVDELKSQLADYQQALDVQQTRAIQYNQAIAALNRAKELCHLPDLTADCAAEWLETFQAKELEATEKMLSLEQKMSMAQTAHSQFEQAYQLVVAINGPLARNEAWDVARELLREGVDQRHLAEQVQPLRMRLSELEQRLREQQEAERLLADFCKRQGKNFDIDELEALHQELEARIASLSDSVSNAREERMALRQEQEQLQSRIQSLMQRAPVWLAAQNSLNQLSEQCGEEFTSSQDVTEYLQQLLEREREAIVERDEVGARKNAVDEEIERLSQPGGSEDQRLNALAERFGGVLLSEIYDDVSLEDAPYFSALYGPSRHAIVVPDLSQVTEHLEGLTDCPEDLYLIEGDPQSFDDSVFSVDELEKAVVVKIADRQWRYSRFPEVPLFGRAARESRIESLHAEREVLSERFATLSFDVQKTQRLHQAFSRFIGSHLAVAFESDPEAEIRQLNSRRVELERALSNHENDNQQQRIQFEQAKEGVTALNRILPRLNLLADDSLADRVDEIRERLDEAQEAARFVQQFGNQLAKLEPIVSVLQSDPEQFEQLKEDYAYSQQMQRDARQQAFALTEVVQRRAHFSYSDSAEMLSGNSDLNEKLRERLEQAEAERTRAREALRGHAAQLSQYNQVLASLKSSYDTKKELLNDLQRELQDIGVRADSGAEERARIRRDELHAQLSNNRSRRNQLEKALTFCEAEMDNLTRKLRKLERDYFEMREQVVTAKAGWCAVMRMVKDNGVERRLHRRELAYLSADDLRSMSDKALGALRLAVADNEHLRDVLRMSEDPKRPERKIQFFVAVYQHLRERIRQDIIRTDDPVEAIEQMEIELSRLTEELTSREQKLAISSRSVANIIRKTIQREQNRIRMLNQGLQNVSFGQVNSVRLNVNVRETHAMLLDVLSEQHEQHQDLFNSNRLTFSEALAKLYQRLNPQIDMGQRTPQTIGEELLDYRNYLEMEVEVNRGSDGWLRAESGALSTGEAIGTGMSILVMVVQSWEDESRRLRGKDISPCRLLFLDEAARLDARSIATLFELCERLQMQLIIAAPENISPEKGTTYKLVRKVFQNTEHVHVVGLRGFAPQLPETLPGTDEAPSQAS

T2: MukB (Escherichia coli, UniProt P22523 1-1486)
T2 sequence: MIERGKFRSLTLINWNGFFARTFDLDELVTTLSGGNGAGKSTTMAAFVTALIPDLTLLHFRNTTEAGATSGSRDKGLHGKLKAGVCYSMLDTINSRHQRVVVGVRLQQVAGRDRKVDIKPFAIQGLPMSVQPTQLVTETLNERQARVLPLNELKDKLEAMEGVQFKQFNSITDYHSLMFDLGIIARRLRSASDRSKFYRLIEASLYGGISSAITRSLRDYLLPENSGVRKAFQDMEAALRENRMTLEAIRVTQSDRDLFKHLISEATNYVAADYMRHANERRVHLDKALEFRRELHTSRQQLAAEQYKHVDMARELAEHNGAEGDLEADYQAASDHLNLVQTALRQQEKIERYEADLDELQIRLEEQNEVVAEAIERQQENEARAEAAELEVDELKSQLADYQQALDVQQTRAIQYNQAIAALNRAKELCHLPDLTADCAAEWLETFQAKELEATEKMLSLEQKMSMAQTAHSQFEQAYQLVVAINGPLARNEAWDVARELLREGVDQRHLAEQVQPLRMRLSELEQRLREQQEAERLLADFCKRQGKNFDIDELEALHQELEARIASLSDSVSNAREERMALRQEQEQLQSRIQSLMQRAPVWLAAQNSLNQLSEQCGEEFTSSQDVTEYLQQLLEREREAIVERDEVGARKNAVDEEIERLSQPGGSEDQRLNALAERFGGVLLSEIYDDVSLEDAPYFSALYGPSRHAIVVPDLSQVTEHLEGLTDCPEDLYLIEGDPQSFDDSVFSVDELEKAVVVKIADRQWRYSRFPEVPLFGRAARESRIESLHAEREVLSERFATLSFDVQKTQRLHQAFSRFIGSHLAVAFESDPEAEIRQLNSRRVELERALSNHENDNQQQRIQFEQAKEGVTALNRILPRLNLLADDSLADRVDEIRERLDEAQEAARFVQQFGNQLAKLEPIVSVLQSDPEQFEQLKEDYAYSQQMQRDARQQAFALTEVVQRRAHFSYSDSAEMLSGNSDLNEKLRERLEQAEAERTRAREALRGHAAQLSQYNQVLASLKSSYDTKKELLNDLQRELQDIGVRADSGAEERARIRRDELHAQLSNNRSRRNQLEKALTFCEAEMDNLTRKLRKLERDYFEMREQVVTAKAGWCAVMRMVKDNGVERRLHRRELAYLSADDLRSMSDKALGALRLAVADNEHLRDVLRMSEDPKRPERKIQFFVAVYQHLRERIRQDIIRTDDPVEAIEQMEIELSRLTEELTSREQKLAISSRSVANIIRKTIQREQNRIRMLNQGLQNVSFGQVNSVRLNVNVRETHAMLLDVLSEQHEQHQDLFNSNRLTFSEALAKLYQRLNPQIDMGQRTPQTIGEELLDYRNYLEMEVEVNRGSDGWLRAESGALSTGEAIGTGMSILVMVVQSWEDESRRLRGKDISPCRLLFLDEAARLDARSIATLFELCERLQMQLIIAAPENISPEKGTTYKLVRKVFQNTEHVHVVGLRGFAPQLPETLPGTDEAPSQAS

T3: MukBtriple (MukB3X) (Escherichia coli, UniProt P22523 1-1486, D697K;D745K;E753K)
T3 sequence: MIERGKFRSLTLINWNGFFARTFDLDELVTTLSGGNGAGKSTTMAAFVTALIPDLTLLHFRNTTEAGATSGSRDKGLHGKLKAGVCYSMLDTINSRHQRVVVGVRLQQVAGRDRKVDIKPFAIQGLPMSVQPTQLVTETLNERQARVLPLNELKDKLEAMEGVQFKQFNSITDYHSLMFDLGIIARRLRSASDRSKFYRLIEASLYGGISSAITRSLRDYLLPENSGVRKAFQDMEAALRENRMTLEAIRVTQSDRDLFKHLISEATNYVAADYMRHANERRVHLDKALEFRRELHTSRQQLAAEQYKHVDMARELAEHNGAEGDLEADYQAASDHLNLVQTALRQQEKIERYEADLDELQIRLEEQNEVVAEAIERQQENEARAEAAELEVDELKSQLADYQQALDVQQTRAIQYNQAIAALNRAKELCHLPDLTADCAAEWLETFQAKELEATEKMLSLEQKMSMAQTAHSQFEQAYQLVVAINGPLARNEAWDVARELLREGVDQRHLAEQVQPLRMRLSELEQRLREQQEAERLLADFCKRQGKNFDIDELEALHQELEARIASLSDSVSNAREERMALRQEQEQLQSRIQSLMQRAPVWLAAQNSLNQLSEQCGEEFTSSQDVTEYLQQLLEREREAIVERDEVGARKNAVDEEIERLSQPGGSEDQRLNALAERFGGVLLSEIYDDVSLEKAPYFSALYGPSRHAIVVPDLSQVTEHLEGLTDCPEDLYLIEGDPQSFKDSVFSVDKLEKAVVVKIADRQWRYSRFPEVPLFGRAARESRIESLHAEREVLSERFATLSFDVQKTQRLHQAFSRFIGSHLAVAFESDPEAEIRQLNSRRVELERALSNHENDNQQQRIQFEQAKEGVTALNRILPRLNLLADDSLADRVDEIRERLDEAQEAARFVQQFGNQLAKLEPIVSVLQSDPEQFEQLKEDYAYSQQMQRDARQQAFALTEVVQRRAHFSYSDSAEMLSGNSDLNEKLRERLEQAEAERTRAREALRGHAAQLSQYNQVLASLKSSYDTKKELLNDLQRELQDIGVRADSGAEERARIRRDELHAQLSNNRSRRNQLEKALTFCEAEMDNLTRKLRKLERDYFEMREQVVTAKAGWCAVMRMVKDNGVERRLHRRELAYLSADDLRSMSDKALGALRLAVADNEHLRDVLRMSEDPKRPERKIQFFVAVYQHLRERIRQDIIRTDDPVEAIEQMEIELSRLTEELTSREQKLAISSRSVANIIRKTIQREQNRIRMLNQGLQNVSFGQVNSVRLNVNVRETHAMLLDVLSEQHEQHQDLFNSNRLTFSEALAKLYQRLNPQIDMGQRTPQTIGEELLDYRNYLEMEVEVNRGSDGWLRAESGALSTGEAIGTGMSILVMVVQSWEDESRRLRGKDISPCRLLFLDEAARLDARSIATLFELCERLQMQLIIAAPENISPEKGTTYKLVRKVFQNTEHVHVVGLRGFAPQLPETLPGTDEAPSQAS


Key:
MukB [1] = biological target: T1, MukB; assay: pull-down; MukB (125 nM) held on Dynabeads Protein A through affinity-purified MukB polyclonal antibodies; varying ParC; 50 mM HEPES-KOH pH 7.5, 50 mM KCl, 0.5 mM Mg(OAc)2, 7.5% glycerol, 0.05% IGEPAL, 15 min at 37°C; bound protein read from SDS-PAGE bands; fit to the Hill equation; KD dimer to dimer; details: both partners purified
MukB [2] = biological target: T2, MukB; assay: DNA binding assay (method not stated in material); 0.5 mM Mg(OAc)2; apparent Kd; 50 mer binding: 50 mM HEPES-KOH pH 7.5, 10 mM DTT, 20 mM KCl, 0.5 mM Mg(OAc)2, 5 nM DNA; pull-down: same buffer plus 7.5% glycerol, 0.05% NP-40, loading at room temperature, assay at 37 C; details: protein: recombinant; chain copies: 2; label: 5'-32P; blunt
MukBtriple (MukB3X) = biological target: T3, MukBtriple (MukB3X); assay: as above; details: protein: recombinant; chain copies: 2; label: 5'-32P; blunt

Kd (MukB [1]) [nM] | Binder | Kd (MukB [2]) [nM] | Kd (MukBtriple (MukB3X)) [nM]
115 | ParC subunit of topoisomerase IV (natural protein, E. coli, UniProt P0AFI2 1-752, looked up, ParC, breakage and reunion subunit of topoisomerase IV of Escherichia coli; also called wild-type ParC; Cwt) MSDMAERLALHEFTENAYLNYSMYVIMDRALPFIGDGLKPVQRRIVYAMSELGLNASAKFKKSARTVGDVLGKYHPHGDSACYEAMVLMAQPFSYRYPLVDGQGNWGAPDDPKSFAAMRYTESRLSKYSELLLSELGQGTADWVPNFDGTLQEPKMLPARLPNILLNGTTGIAVGMATDIPPHNLREVAQAAIALIDQPKTTLDQLLDIVQGPDYPTEAEIITSRAEIRKIYENGRGSVRMRAVWKKEDGAVVISALPHQVSGARVLEQIAAQMRNKKLPMVDDLRDESDHENPTRLVIVPRSNRVDMDQVMNHLFATTDLEKSYRINLNMIGLDGRPAVKNLLEILSEWLVFRRDTVRRRLNYRLEKVLKRLHILEGLLVAFLNIDEVIEIIRNEDEPKPALMSRFGLTETQAEAILELKLRHLAKLEEMKIRGEQSELEKERDQLQGILASERKMNNLLKKELQADAQAYGDDRRSPLQEREEAKAMSEHDMLPSEPVTIVLSQMGWVRSAKGHDIDAPGLNYKAGDSFKAAVKGKSNQPVVFVDSTGRSYAIDPITLPSARGQGEPLTGKLTLPPGATVDHMLMESDDQKLLMASDAGYGFVCTFNDLVARNRAGKALITLPENAHVMPPVVIEDASDMLLAITQAGRMLMFPVSDLPQLSKGKGNKIINIPSAEAARGEDGLAQLYVLPPQSTLTIHVGKRKIKLRPEELQKVTGERGRRGTLMRGLQRIDRVEIDSPRRASSGDSEE | – | –
– | 50mer duplex DNA (dsDNA) DNA 1: ATCTCGGGCTATTCTTTTGATTTATAAGGGATTTTGCCGATTTCGGAACC DNA 2: GGTTCCGAAATCGGCAAAATCCCTTATAAATCAAAAGAATAGCCCGAGAT | 120 | 30
